# Source: patent US20230227537A1 (VIB VZW, published 2023)
# Columns and labels:
# [1] = target: SARS-CoV-1 spike, full length, on cells or on pseudotyped virus (SARS-CoV-1, UniProt P59594 14-1255); experiment: cell-based or functional assay
# [2] = target: SARS-CoV-2 RBD protein Avi-tag biotinylated (AcroBiosystems SPD-C82E9) (SARS-CoV-2, UniProt P0DTC2 330-518)
# [3] = target: SARS-CoV RBD (SARS-CoV-1, UniProt P59594 320-502)
binder,measurement,setting,value
VHH72_h1 (VHH) VHH: EVQLVESGGGLVQPGGSLRLSCAASGRTFSEYAMGWFRQAPGKEREFVATISWSGGSTYYTDSVKGRFTISRDNAKNTVYLQMNSLRPEDTAVYYCAAAGLGTVVSEWDYDYDYWGQGTLVTVSS,"IC50, VSV-dG SARS-CoV-1 spike pseudotype neutralization",[1],0.491 µg/mL
VHH72_h1(S56A) (VHH) VHH: EVQLVESGGGLVQPGGSLRLSCAASGRTFSEYAMGWFRQAPGKEREFVATISWSGGATYYTDSVKGRFTISRDNAKNTVYLQMNSLRPEDTAVYYCAAAGLGTVVSEWDYDYDYWGQGTLVTVSS,"IC50, VSV-dG SARS-CoV-1 spike pseudotype neutralization",[1],0.045 µg/mL
same,fold better neutralization than parental VHH72,[1],10 fold
SARS VHH-72 (VHH) VHH: QVQLQESGGGLVQAGGSLRLSCAASGRTFSEYAMGWFRQAPGKEREFVATISWSGGSTYYTDSVKGRFTISRDNAKNTVYLQMNSLKPDDTAVYYCAAAGLGTVVSEWDYDYDYWGQGTQVTVSS,IC50,[2],16 nM
VHH72_h1 (E1D) (VHH) VHH: DVQLVESGGGLVQPGGSLRLSCAASGRTFSEYAMGWFRQAPGKEREFVATISWSGGSTYYTDSVKGRFTISRDNAKNTVYLQMNSLRPEDTAVYYCAAAGLGTVVSEWDYDYDYWGQGTLVTVSS,koff,[3],0.00219 s⁻¹
